Reference: the nanobody polyreactivity screen of Harvey et al. (2022)

Assay: yeast display, Sf9 membrane polyspecificity reagent, FACS + sequencing; frameworks hold sequencing errors
Procedure, shortened: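 Genes from sorted yeast were amplified by colony PCR, read by MiSeq 2 × 250 sequencing and filtered on CDR length. These cells carried a synthetic nanobody library in Saccharomyces cerevisiae BJ5465 and were sorted by FACS into low and high (top ~1%) gates on anti-HA and streptavidin fluorescence. Polyreactivity is labelled according to the gate of origin.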

In the case of “QVQLVESGGGLVKAGGSLRLSCAASGRIFSRNAMGWYRQAPGKERELVAAITRRGGNTYYADSVKGRFTISRDNAKNTVYLQMNSLKPEDTAVYYCATRRYYQRWSPGYDYWGQGTQVTVSS”, the “polyreactivity (PSR sort gate)” value is reported as “high polyreactivity”.
With “QAQLEESGGGLVQAVGSLRLSCAASGRTFTNNDMGWYIQAPGKERELVAAIRWSGGSTYYADSVKGRFTISRDNAKNTVYFQMNSLKPEDTAVYYCAKGYGYVEAVIVQYDYWGQGTQVTVSS” the “polyreactivity (PSR sort gate)” value was “low polyreactivity”.
In the case of “QVQLVESGGGLVQAGGSLRLSCAASGIIFGWYAMGWYRQAPGKERELVAAISYSGGSTYYADSVKGRFTISRDNAKNTVYLQMNSLKPEDTAVYYCAVQRYWGQGTQVTVSS”, the “polyreactivity (PSR sort gate)” value is reported as “high polyreactivity”.
With “QVQLVESGGGLVQAGGSLRLSCAASGSIFINNGMGWYRQAPGKERELVAAINGGDGSTYYADSVKGRFTISRDNAKNTVYLQMNSLKPEDTAVYYCAKDYTIGYTYQYDYWGQGTQVTVSS” the “polyreactivity (PSR sort gate)” value was “low polyreactivity”.
For “QVQLVESGGGLVQAGGSLRLSCAASGFIFWLNAMGWYRQAPGKERELVAASSIGGRTNYADSVKGRFTISRDNAKNTVYLQMNSLKPDDTAVYYCNKDYRSVYKGRGFDYCGQGTQVTVSS”, the “polyreactivity (PSR sort gate)” value was “low polyreactivity”.
For “QVQLVESGGGLVQAGGSLRLSCAASGSIFGKNAMGWYRPAPGKERELVAAITRRGGSTYYADSVKGRFTISRDNAKNTVYLQMISLKPEDTAVYYCNALLTGGYQDSYPDDYWGQGTQVTVSS”, the “polyreactivity (PSR sort gate)” value was “high polyreactivity”.
For “QVQLVESGGGLVQAGGSLRLSCAASGSTFGSNAMGWYRQAPGKERELVAAITGGDVSTYYADSVKGRFTISRDNAKNTDYLQMNSLKPEDTAVYYCNAEYARPAMDYWGQGTQVTVSS”, the “polyreactivity (PSR sort gate)” value was “low polyreactivity”.
In the case of “QVQLVESGGGLFQAGGSLRLRCAATGLIFDLYAMGWYRQAPGKERELVAVISYDGGSTYYADSVKGRFTISRDNAKNTVYLQMNSLKPEETAVYYCNTFDGLVSPSDLYDYWGQGTQVTVSS”, the “polyreactivity (PSR sort gate)” value is reported as “low polyreactivity”.
In the case of “QVQLVESGGGLVQAGGSLRLSCAASGSIFEIYAMGWYRQAPGKERELVASITWSGGSTYYADSVKGRFTISRDNAKNTVYLQMNSLKPEDTAVYYCATDKLYGRTVRMDYWGQGTQVTVSS”, the “polyreactivity (PSR sort gate)” value is reported as “low polyreactivity”.
With “QVQLVESGGGLVQAGGSLRLSCAASGSTFYNYAMGWYRQAPGKERELVAAIRNGGGTNYADSVKGRFTISRDNAKITVYLQMNSLKPEDTAVYYCNKAYGVSGPGVDYWGQGTQVTVSS” the “polyreactivity (PSR sort gate)” value was “low polyreactivity”.
In the case of “QVQLVESGGGLVQAGRSLRLICAASGSIFDWYAMGWYRQAPGKEGELVAAISSGDSTYYADSVKGRFTISRDNAKNTVYLQMNSLKPEDTAVYYCAAVTKLSGIRYHYWGQGTQVTVSS”, the “polyreactivity (PSR sort gate)” value is reported as “low polyreactivity”.
With “QVQLVESGGGLVQAGGSLRLSCAASGRISKRYTMGWYRQAPGKERELVAAITNSGGTTYYADSVKGRFTISRDNAKNTVYLQMNSLKPEDTAVYYCNKPYGAETAHREFDYWGQGTQVTVSS” the “polyreactivity (PSR sort gate)” value was “low polyreactivity”.
In the case of “QVQLVESGGGLVQAGGSLRLSCAASGFISPSYDMGWYRQAPGKEWELVAAIRSSDGSTYYADSVKGRFTISRDNAKNTVYLQMNSLKPEDTAVYYCNKGVVLTLYVGMDYWGQGTQVTVSS”, the “polyreactivity (PSR sort gate)” value is reported as “low polyreactivity”.
With “QVQLVESGGGLVQAGRSLRLICAASGRILVPYTMGWYRQAPGKERDLVAAITIGGRTTYADSVKGRLTISRDNAKNTLYLQMNIMKPEDTAVYYCAKRDWRYEWYGYDYWGQGTQVTVSS” the “polyreactivity (PSR sort gate)” value was “low polyreactivity”.
In the case of “QVQLVESGGGLVQAGGSLRLSCAASGIIFPSYVMGWYRQAPGKERELVAAISSRGTSTYYADSVKGRFTISRDHAKNTVYLQMNSLKPEDTAVYYCAAKSFGTTTRSEYDYWGQGTQVTVSS”, the “polyreactivity (PSR sort gate)” value is reported as “high polyreactivity”.
For “QVQLVESGGCLVQAGGSLRLSCAASGRSLTDYAMGWYRKAPGKERELVAAISRSGGSTYYADSVKGRFTISRDHAKNTVYLQMNSLKTEDTAVYYCAAGTPKRVGGGYWGQCTQVTVSS”, the “polyreactivity (PSR sort gate)” value was “high polyreactivity”.
For “QVQLVESGGGLVQAGGSLRLSSAASGITFDDYAMGWNRQAPGKERELVAAITWSGDSTYYADSVKGRFTISRDNAKNTVYLQMNSLKPEDTAVYYCAAVSYYYSGYIRGYWGQGTQVTVSS”, the “polyreactivity (PSR sort gate)” value was “high polyreactivity”.
In the case of “QVQLVESGGGIVQAGGSLRLSCAASGLTFRYYAMGWYRQAPGKERELVAAISGSGGSTYYADSVKGRFTISRDNAKNTVYLQLNRLKPEDTAVYYFASENESSSWGDYAMGYWGQGTQVTVST”, the “polyreactivity (PSR sort gate)” value is reported as “high polyreactivity”.
In the case of “QVQLVESGGGLVQAGGSLRLSCAASGNIFYRKARGWYRQAPGKERELVAAITSGGGSTYYADSVKGRFTISRDNAKNTVYLQMNSLKPVDTAVYYCNAYAWNYFGIKVTYDYWGQGTQVTVSS”, the “polyreactivity (PSR sort gate)” value is reported as “high polyreactivity”.
For “QVQLVESGGGLVQAGGSLRLSCAASGRIFSFYTMGWYRQAPGKERELVAAISGSGGSTYYADSVKGRFTISRDNANNTFYLQMNSLKPEDTAVYYCAAGYGFRYYLYDYWGQGTQVTVSS”, the “polyreactivity (PSR sort gate)” value was “high polyreactivity”.
In the case of “QVQLVESGGGLVQEGGSLRLSCAASGSTFDIYAMGWYRQAPGKERELVAAIRGRGGSTYYADSVKGRFTISRDNGKNTVYLQMNSLKPEDTAVYYCAADSYATRYYYWGQGTQVTVSS”, the “polyreactivity (PSR sort gate)” value is reported as “high polyreactivity”.
In the case of “QVQLVESGGGLVQPGGSLRLSCAASGIIFGSYAMGWYRQAPGKERELFAAITKSGGSTFYADSVKGRYTISRDNAKNTVYLQMNSLKPEDTAVYYCTAVKYRYLEYNYWGQGTQVTVSS”, the “polyreactivity (PSR sort gate)” value is reported as “high polyreactivity”.
In the case of “QVQLVESCGGLVQAGGSLRLSCAASGRTFGYYAMGWYRQAPGKEREFVAAITAGGGSTYYADSVKGRFTISRDNAKNTVYLQMNSLKPEDTAVYYCAKRDYWGQGTQVTVSS”, the “polyreactivity (PSR sort gate)” value is reported as “high polyreactivity”.
In the case of “QVQLVESGGGLDQAGGSLRLSCAASGSTFRYYTMGWYRQAHGKERELVAAISSRGGSTYYADSVKGRFTISRDNAKKTVYLQMNSLKPEDSAVYYCCALYPSWAQRGRDYWGQGTQVSVSS”, the “polyreactivity (PSR sort gate)” value is reported as “high polyreactivity”.
For “QVQLVESGGGLVQAGGSLRLSCAASGIIFGDNAMGWYRQAPGKERELVAAISSSGTSTNYADSVKGRFTISRDNAKNTVYLQMNSLKPEDSAVYYCAKDVLPPYPQSPSGGDYWGQGTQVTVSS”, the “polyreactivity (PSR sort gate)” value was “low polyreactivity”.
With “QVQLVESGGGLVQAGGSLRLSCAASGRIIRAYAMGWYRQAPGKERELVAAISGGSNTNYADSVKGRFKISRDNAKNTVYLQMNSLKPDDTAVYYCAADAGYWESLWYPYGFYWGQGTQVSVSS” the “polyreactivity (PSR sort gate)” value was “low polyreactivity”.
In the case of “QVQLVESGGGLVQAGGSLRLSCAASGSIFKNYAMGWSRQSPGKERELVASITTGASTNYADSVKGRFTISRDNAKNTVYLQMNSLKPEDTAVYYCNADRYYSHYSYYYWGQGTQVTVSS”, the “polyreactivity (PSR sort gate)” value is reported as “high polyreactivity”.
With “QVQLVESGGGLVQAGGSLRLSCAASGFIFGVNAMGWYRQAPGKERELVAAIRWRGGSTYYADSVKGRFTISRDNAKNTVYLQMNSLKPEDTAVYYCAAARFVGGSGYVRILYYWGQGTQVTVSS” the “polyreactivity (PSR sort gate)” value was “high polyreactivity”.
With “QVQRVESGGGLVQAGGSLRLSCAASGRTFNHYAMGWYRAAPGKERELVAAISRSGGTTYYADSVKGRFTISRENAKNTVYLQMNSLKPEDTAVYYCAARWWYRYNYDFWGQGTQVTVSS” the “polyreactivity (PSR sort gate)” value was “high polyreactivity”.
For “QVQLVESGGGLVQAGGSLRLSCAASGFIFGYYAMGWYRQAPGKERELVAAITSGTSTNYADSVKGRFTISRDNAKYTVYLQMNSLKPDDTAVYYCAADRWRRRFYYWGQGTQVTVSS”, the “polyreactivity (PSR sort gate)” value was “high polyreactivity”.
In the case of “QVQLVESGGGLVQAGGSLRLSCAASGFIFGHYAMGWYRQAPGKERELVAGIISSGGSTHYADSVKGRFTISRDNAKNTVYLQMNSLKPEDTAVYFCAADVYRYYAGSRYYYWGQGTQVTVSS”, the “polyreactivity (PSR sort gate)” value is reported as “low polyreactivity”.
With “QVQLVESGGGLVQAGGSLRLSCAASGSTFQPYAMGWYIQAPGKEREFVATISGSAGSTYYADSVKGRFKISRDNAKNTVYLQMNSLKPEDTAVYYCNADSGWFGYDYWGQGTQVTVSS” the “polyreactivity (PSR sort gate)” value was “low polyreactivity”.
With “QVQLVESGGGLVQAGGSLRLSCAASGLTFWRYTMGWYRHAPGKERELVATIRRGTSTNYADSVKGRFTISRDNAKNTVYLQMNSLKPEDTAVYYCAAVPWRYYVEYDYWGQGTQVTVSS” the “polyreactivity (PSR sort gate)” value was “high polyreactivity”.
For “QVQLVESGGGLVQAGGSLRLSCAASGRTFTYYAMGWYRPAPGKERELVARITTDGSSTYYADSVKGRFTISRDNAKNTVYLQMNSLKPEDTAVYYCAADFQYAIHTDMDYWGQGTQVTVSS”, the “polyreactivity (PSR sort gate)” value was “high polyreactivity”.
In the case of “QVQLVESGGGIDQAGGSLRLSCAASGNIFDYYAMGWYRQAPGKEREFVAAISWSGARTYYADSVKGRFTISRDNAKNTVYLQMNRLKPEDTAVYYCAGGQSWRKNDYRYDYWGQGTQVTVSS”, the “polyreactivity (PSR sort gate)” value is reported as “high polyreactivity”.
In the case of “QVQLVESGGGLVQAGGSLSLSCAASGRLFKIDAMGWYRQAPGKERELVATISSGGRTNYADSVKGRFTISRDNAKNSVYLQMNSLKPEVTAVYYCNAGARVLYETESFDYWGQGIQVTVSS”, the “polyreactivity (PSR sort gate)” value is reported as “low polyreactivity”.
For “QVQLVESGGGLVQAGGSLRLSCAASGFTLQGYAMGWYRQAPGKERELVAAIRWIGTSTYYADSVKGRFTISRDIAKNTVYLQMNSLKPEDTAVYYCAAYRYNTPFGYWGQGTQVTVSS”, the “polyreactivity (PSR sort gate)” value was “high polyreactivity”.
For “QVQLVESGGGLVQAGGSLRLSCAASGFISFGNAMGWYIQAPGKERELVAGISRSGGSTYYADSVKGRFTISRDNAKNTVYLQMYSLKPEDTAVYYCATRVAIYPYRFDYWGQGTQVTVSS”, the “polyreactivity (PSR sort gate)” value was “high polyreactivity”.
For “QVQLVESGGGLVQAGGSLRLSCAASGRIFDNYAMGWYRQAPGKERELVAAITSTGRTNYADSVKGRFTISRDNAKYTVYLQMYSLKPEDTAVYYCNVDYQYARSGHANAYEYYYWGQGTQVTVSS”, the “polyreactivity (PSR sort gate)” value was “low polyreactivity”.
For “QVQLVESGGGLVQAGGSLRLSCPASGSIIYTNDMGWYRQEPGKEREMVAAISYGGTTTYADSVKGRFTISRDNAKNTVYLQMNSLKPEDTAVYYCNADWLYYGYWGYGHIWYDFWGQGTQVTVSS”, the “polyreactivity (PSR sort gate)” value was “low polyreactivity”.
With “QVNLVESGGGLVLAGGSLRLSCAASGRIYRRNTMGWYRPAPGKERELVAAITSSGGSTYADSVKGRFTISRDNAKNTVYLQMNSLKPEDTAVYYCDTYVAYHRGYRTYDHWGQGTQVTVSS” the “polyreactivity (PSR sort gate)” value was “low polyreactivity”.
For “QVQLQESGGGLVRAGGSLRLSCAASGYISTSIAMGWYRQAPGKERELVASFGGGAITNYADSVKGFTISRDNGKNTVYLQMNCLKPEDTAVYYFAVYHGDRGYYSYWGQGTQVTVSS”, the “polyreactivity (PSR sort gate)” value was “low polyreactivity”.
In the case of “QVQLVESGGGLVQAGGSLRLSCAASGSIFDYYTMGWYRQAPGKERELVAAITRSGGRTYYADSVKGRFTISRDYAKNTDYLLMNSLKPEDTAVYNCSTGAVSRFGNGPYDFWGQGTQVTVSS”, the “polyreactivity (PSR sort gate)” value is reported as “high polyreactivity”.
